The text below walks through data of paper PMC9239176, “Involvement of the DNA Phosphorothioation System in TorR Binding and Anaerobic TMAO Respiration in Salmonella enterica”.

The subject of series [1] is Biotin carboxyl carrier protein of acetyl-CoA carboxylase (Salmonella enterica serovar Cerro 87). Kind of series: pull-down LC-MS/MS. Conditions: EMSA: 50 nM DNA, 20 mM Tris-HCl pH 8.0, 50 mM KCl, 10 mM MgCl2, 5 mM EDTA, 10 mM DTT, 5% glycerol, 28 C 30 min, gel at 4 C, pull-down: cell lysate, 4 C 4 h. In general terms: In EMSA bound probe runs differently from free probe, usually more slowly.

Series [2] concerns DndF (Salmonella enterica serovar Cerro 87). Kind of series: pull-down LC-MS/MS. To be noted: EMSA: 50 nM DNA, 20 mM Tris-HCl pH 8.0, 50 mM KCl, 10 mM MgCl2, 5 mM EDTA, 10 mM DTT, 5% glycerol, 28 C 30 min, gel at 4 C, pull-down: cell lysate, 4 C 4 h.
Series [3] deals with DndG (Salmonella enterica serovar Cerro 87). The experiment in a line: pull-down LC-MS/MS. To be noted: EMSA: 50 nM DNA, 20 mM Tris-HCl pH 8.0, 50 mM KCl, 10 mM MgCl2, 5 mM EDTA, 10 mM DTT, 5% glycerol, 28 C 30 min, gel at 4 C, pull-down: cell lysate, 4 C 4 h.
A further series addresses T1, TorR CTD (Salmonella enterica serovar Cerro 87, UniProt Q8ZKZ5 127-230).
T1 sequence: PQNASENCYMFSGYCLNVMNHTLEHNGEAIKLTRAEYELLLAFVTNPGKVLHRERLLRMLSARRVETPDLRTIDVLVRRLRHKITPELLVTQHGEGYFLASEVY
Kind of series: EMSA; EMSA: 50 nM DNA, 20 mM Tris-HCl pH 8.0, 50 mM KCl, 10 mM MgCl2, 5 mM EDTA, 10 mM DTT, 5% glycerol, 28 C 30 min, gel at 4 C; pull-down: cell lysate, 4 C 4 h. Conditions: protein: recombinant; tags: His (pET28a, Ni-NTA).

The mark [4] stands for this setting: phosphorothioate: strand 1 between G13 and A14, strand 2 between G15 and T16.

On to “GGCCCACTACGTGAACCATCACCCTAATCA (double strand) [B12]”, for which the binding signal (normalized spectral count) is 1.41 in series [1] (setting [4]), 20.2 in series [2] (setting [4]) and 30.9 in series [3] (setting [4]).

With “GGCCCACTACGTGAACCATCACCCTAATCA (double strand) [B34]”, the results for the binding signal (B34/B12 ratio) in series [1], in series [2] and in series [3] were 2.78, 0.43 and 0.32, respectively.

B1: tor box1, PT (dsDNA)
DNA 1: CCTGCGCGCGGTCTCTTTCTGTTCATATCT
DNA 2: AGATATGAACAGAAAGAGACCGCGCGCAGG
modifications: phosphorothioate GpsTTC/GpsAAC
As to B1, the binding result with TorR CTD is on record as “binds”.
